Like-named read-outs stand apart in the source and are kept apart here. Where no end group is shown, it is not given here.
Legend:
[1] = Stability of Aβ(1-42) oligomers B in physiological buffers (SDS PAGE); assay type: physicochemical
Protocol: The Aβ(1-42) oligomers B obtained according to example 6b are tested for stability in PBS buffer under the following conditions.
5 mg/ml are diluted with PBS in 2× dilution steps down to 0.08 mg/ml. All solutions obtained are incubated at room temperature for 24 hours. This was followed by analyzing the band pattern in an SDS PAGE in comparison with a frozen control preparation.
The Aβ(1-42) oligomers B obtained according to example 6b are diluted to 0.5 mg/ml with PBS buffer and incubated at room temperature or at 37° C. for 24 h or 96 h.
Subsequently, the band pattern was analyzed in an SDS PAGE.

murine cortical neurons = experiment: Neurotoxic action on murine cortical neurons (LDH release); assay type: cell-based; settings: 24 h, various final concentrations, n=12
Protocol: Murine cortical neurons are prepared and cultured as a mixed culture with glia cells following the literature (Choi et al. (1987) J. Neurosci. 7, 357-368). The cortices of embryos on days 14-15 of development are mechanically removed from the meninges and lower brain regions. The cells are separated from one another by incubation in a 0.05% strength trypsin solution at 37° C. for 5-7 minutes and subsequently pipetting said solution several times through a pasteur pipette with reduced opening. After determining the number of cells, 430 000 cells are seeded in 0.5 ml of maintenance medium (minimum essential medium containing 0.8 mM glutamine, 18 mM glucose, 23 mM NaHCO3 and 10% of horse serum) per 2 cm^2 on cell culture material coated with poly-L-ornithine and laminine. Cultivation and later incubations of the cells are carried out in a humidified cell culture incubator at 37° C., 5% CO2. […] The cell culture supernatants are removed after 24 h, the remaining cells are destroyed by incubation in distilled water for 20 minutes and the activity of the enzyme lactate dehydrogenase (LDH) is determined enzymatically in both solutions. For evaluation, the ratio of the LDH activity of the cell culture supernatants to the sum of the LDH activities of supernatant and remaining cells is determined and the average of the quadruple determinations is formed. […]

[2] = rat
[3] = rat, in vivo; for Aβ(1-42) detected in brain extract: 10 nmol
[4] = Detection of Aβ(1-42) oligomers B in rat brain homogenates after icv administration; settings: Western blot, after 2 hours
[5] = tested on: rat primary hippocampal neurons; experiment: Binding to rat primary hippocampal neurons (immunofluorescence); assay type: cell-based; settings: 200 nM, 37° C., 15 minutes, detection with 6E10 and Cy3 second antibody
Protocol: The binding of rat Aβ(1-42) oligomers B of example 5b to rat primary hippocampal neurons was studied. The hippocampal neurons were cultured in neurobasal medium with B27 supplement on poly-L-lysine-coated cover slips and used on day 14 of the culture. The oligomers were bound to the cell membrane of the neurons by adding 200 nM (total monomeric Aβ concentration) oligomers to fresh culture medium and incubating at 37° C. for 15 minutes. After removing the Aβ-containing medium, two washing steps with medium were carried out and the cells were then fixed in 3.7% formaldehyde. After further washing of the cells, unspecific binding sites were blocked with 10% normal donkey serum in PBS buffer at room temperature for 90 min. 6E10 (from mouse) was applied as the first antibody in a 1:2000 dilution at room temperature for 2 h. The cells were washed again and incubated with the second antibody (from donkey) which is directed against mouse and which is coupled to the fluorescent dye Cy3, at room temperature for 2 h. After the cells had been washed again, the cover slips containing the neurons were fixed to a slide with embedding medium. The hippocampal neurons with bound Aβ oligomers were depicted in a fluorescent microscope. The control used was a mixture in which the first antibody 6E10 had been omitted.

Substance	band pattern in SDS PAGE ([1]; 0.5 mg/ml in PBS, room temperature or 37° C., 24 h or 96 h)	band pattern in SDS PAGE versus frozen control ([1]; PBS, 5 mg/ml down to 0.08 mg/ml, room temperature, 24 hours)	neurotoxicity (neuronal death, LDH) (murine cortical neurons)	biological half life in the plasma [2] [hours]	average biological half life (brain) [3]	Aβ(1-42) detected in brain extract ([3]; 0.25 h)	Aβ(1-42) detected in brain extract ([3]; 2 h)	oligomeric structure after in vivo administration (38/48 kDa bands) [4]	binding to the cell surface of the neurons [5]
Aβ(1-42) oligomers B: oligomers of human amyloid β(1-42) protein with molecular weights of 38 kDa and 48 kDa in SDS PAGE (examples 5a, 6b)	identical in all samples	identical in all samples	distinct toxic action	≥ 8	about 105 min	about 0.4 nmol/g	approx. 0.2 nmol/g	oligomeric structure is still retained	–
rat Aβ(1-42) oligomers B: oligomers of rat amyloid β(1-42) protein with molecular weights of 38 kDa and 48 kDa (example 5b) (DAEFGHDSGFEVRHQKLVFFAEDVGSNKGAIIGLMVGGVVIA; also: oligomers of 38 kDa and 48 kDa)	–	–	–	–	–	–	–	–	bind to the cell surface of the neurons in a dotted manner
